From the supplement of paper PMC9233669
Variants at the floor of the assay were thinned out.

What was measured:
biotinyl-Phe-oxazolone = experiment: self-aminoacylation, catalytic enhancement (BFO) (fold over background); higher = more active; k-Seq, kA / k0A0; sequences stand for … in GGGAAUGGAUCCACAUCUACGAAUUC…UUCACUGCAGACUUGACGAAGCUG
How it was run: (§1)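 Each biotinyl-aminoacyl-oxazolone, at 2–1250 μM, was incubated with mutagenized RNA pools (0.43 μM) carrying a 21-nt variable region. The 50 μL reactions contained HEPES/NaCl/KCl/MgCl2/CaCl2 buffer with 5% acetonitrile at pH 6.9–7.0 and ran for 90 minutes at room temperature. After streptavidin capture, RNA was measured by qPCR in triplicate and by Illumina sequencing, and catalytic enhancement was calculated as median kA over the uncatalyzed rate from a pseudo-first-order fit of per-sequence fraction reacted.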

biotinyl-Ile-oxazolone = experiment: self-aminoacylation, catalytic enhancement (BIO) (fold over background); higher = more active; k-Seq, kA / k0A0; sequences stand for … in GGGAAUGGAUCCACAUCUACGAAUUC…UUCACUGCAGACUUGACGAAGCUG
How it was run: as §1

biotinyl-Met-oxazolone = experiment: self-aminoacylation, catalytic enhancement (BMO) (fold over background); higher = more active; k-Seq, kA / k0A0; sequences stand for … in GGGAAUGGAUCCACAUCUACGAAUUC…UUCACUGCAGACUUGACGAAGCUG
How it was run: as §1

biotinyl-Val-oxazolone = experiment: self-aminoacylation, catalytic enhancement (BVO) (fold over background); higher = more active; k-Seq, kA / k0A0; sequences stand for … in GGGAAUGGAUCCACAUCUACGAAUUC…UUCACUGCAGACUUGACGAAGCUG
How it was run: as §1

biotinyl-Leu-oxazolone = experiment: self-aminoacylation, catalytic enhancement (BLO) (fold over background); higher = more active; k-Seq, kA / k0A0; sequences stand for … in GGGAAUGGAUCCACAUCUACGAAUUC…UUCACUGCAGACUUGACGAAGCUG
How it was run: as §1

biotinyl-Trp-oxazolone = experiment: self-aminoacylation, catalytic enhancement (BWO) (fold over background); higher = more active; k-Seq, kA / k0A0; sequences stand for … in GGGAAUGGAUCCACAUCUACGAAUUC…UUCACUGCAGACUUGACGAAGCUG
How it was run: as §1

Row | Sequence | self-aminoacylation (biotinyl-Phe-oxazolone) | self-aminoacylation (biotinyl-Ile-oxazolone) | self-aminoacylation (biotinyl-Met-oxazolone) | self-aminoacylation (biotinyl-Val-oxazolone) | self-aminoacylation (biotinyl-Leu-oxazolone) | self-aminoacylation (biotinyl-Trp-oxazolone)
1 | AAGUUUGAUAAUAGGCGCAAG [Fam3.1 aminoacylation ribozyme variant] | 0.836 | 0.704 | 0.523 | 0.551 | 0.59 | 0.74
2 | AAGUUUACUAAUAGUCGCAUG [Fam3.1 aminoacylation ribozyme variant] | 2.25 | 1.49 | 1.25 | 1.13 | 1.34 | 1.68
3 | CCAGACUUCAAGCAAUCGCUC [Fam1B.1 aminoacylation ribozyme variant] | 5.36 | 2.23 | 2.06 | 2.11 | 2.71 | 1.54
4 | AUUACCCGGGUCAUCGCGUGA [Fam2.1 aminoacylation ribozyme variant] | 178 | 12 | 25.4 | 15.6 | 28.3 | 27.8
5 | AUUCACAUAGGUCACCGGGUG [Fam2.2 aminoacylation ribozyme variant] | 42.3 | 4.8 | 5.7 | 4.6 | 7.78 | 5.42
6 | CUACUUCAACCAAUCGGUCUG [Fam1A.1 aminoacylation ribozyme variant] | 33.1 | 0.988 | 1.07 | 1.04 | 1.48 | 18.7
7 | CCACACUUCAGGCAAUCGGCC [Fam1B.1 aminoacylation ribozyme variant] | 13.1 | 2.61 | 2.15 | 3.89 | 4.67 | 3.69
8 | AUUACCCUGGUCAUCCAGCGA [Fam2.1 aminoacylation ribozyme variant] | 10.1 | 2.7 | 3.38 | 2.68 | 4.08 | 3.97
9 | CUACUUCAAACAAACGGGCUG [Fam1A.1 aminoacylation ribozyme variant] | 1.65 | 1.2 | 0.993 | 0.934 | 0.999 | 0.862
10 | CUUCUUCAAACAAUCGGGCUG [Fam1A.1 aminoacylation ribozyme variant] | 5.81 | 1.29 | 1.25 | 1.06 | 1.43 | 4.55
11 | CCACACUUAAAGUAAUCGGUC [Fam1B.1 aminoacylation ribozyme variant] | 0.772 | 0.82 | 0.695 | 0.836 | 0.744 | 0.875
12 | CCACACUUCAAGCAAUCGGAG [Fam1B.1 aminoacylation ribozyme variant] | 0.817 | 0.874 | 0.743 | 1.16 | 0.591 | 1.03
13 | CCACACUCCAUGCAAUCGGUC [Fam1B.1 aminoacylation ribozyme variant] | 0.866 | 0.982 | 0.676 | 1.05 | 0.901 | 0.663
14 | AAGUUUCCUGAUAGUCGCAAG [Fam3.1 aminoacylation ribozyme variant] | 3.33 | 1.67 | 1.69 | 1.54 | 1.69 | 1.49
15 | AUUCACCUAGGUCACCGGGUG [Fam2.2 aminoacylation ribozyme variant] | 32.2 | 3.51 | 4.95 | 3.55 | 6.44 | 4.63
16 | AAGAUUGGUAAUAGUCGCAAG [Fam3.1 aminoacylation ribozyme variant] | 1.65 | 2.04 | 1.75 | 1.59 | 2.02 | 2.54
17 | CCACACUCCAAGCAACCGGUC [Fam1B.1 aminoacylation ribozyme variant] | 0.853 | 1.24 | 0.814 | 1.44 | 1.19 | 0.654
18 | AAUACCCUGGUCAUCGAGUGA [Fam2.1 aminoacylation ribozyme variant] | 20.8 | 5.01 | 9.27 | 5.52 | 8.74 | 11.2
19 | AUUCCCCUGGUCAUCGAAUGA [Fam2.1 aminoacylation ribozyme variant] | 2.91 | 2.24 | 2.45 | 1.96 | 2.09 | 2.15
20 | CAACUUGAAACAAUCGGUCUG [Fam1A.1 aminoacylation ribozyme variant] | 1.36 | 1.15 | 1.24 | 1.11 | 1.36 | 1.02
21 | CCACACUUCAAGGAUUCGGUC [Fam1B.1 aminoacylation ribozyme variant] | 0.958 | 1.85 | 1.83 | 2.02 | 2.02 | 1.96

Row | Sequence | self-aminoacylation (biotinyl-Phe-oxazolone) | self-aminoacylation (biotinyl-Ile-oxazolone) | self-aminoacylation (biotinyl-Met-oxazolone) | self-aminoacylation (biotinyl-Val-oxazolone) | self-aminoacylation (biotinyl-Leu-oxazolone) | self-aminoacylation (biotinyl-Trp-oxazolone)
22 | AUUACCCUUGUGAUCGAGUGA [Fam2.1 aminoacylation ribozyme variant] | 50.1 | 3.2 | 7.15 | 3.53 | 7.77 | 9.16
23 | GUACUUCAAACAAUCGGUUUG [Fam1A.1 aminoacylation ribozyme variant] | 40.2 | 1.85 | 1.66 | 1.59 | 1.89 | 27.8
24 | ACGUUUGCUAAUAGACGCAAG [Fam3.1 aminoacylation ribozyme variant] | 0.853 | 1.3 | 0.935 | 1.12 | 0.849 | 1.11
25 | AUUCACCUAGGUCGUGGGGUG [Fam2.2 aminoacylation ribozyme variant] | 5.74 | 1.54 | 1.5 | 1.61 | 1.97 | 1.66
26 | CCACACUGCGAGCAAUCGGUC [Fam1B.1 aminoacylation ribozyme variant] | 3.33 | 1.21 | 1.07 | 1.51 | 1.25 | 1.21
27 | AUUCACCUAGGUCACCGGGUA [Fam2.2 aminoacylation ribozyme variant] | 14 | 2.6 | 2.79 | 2.46 | 3.2 | 3.11
28 | GAGUUUGCUAAUAUUCGCAAG [Fam3.1 aminoacylation ribozyme variant] | 1.73 | 2.04 | 1.45 | 1.36 | 1.46 | 1.62
29 | CUACUUCUAACUAUCGGUCUG [Fam1A.1 aminoacylation ribozyme variant] | 0.796 | 0.734 | 0.766 | 0.841 | 0.628 | 0.65
30 | AUUAUCCUGGUCAUCGAGUGU [Fam2.1 aminoacylation ribozyme variant] | 15.3 | 4.25 | 11.1 | 4.73 | 10.2 | 9.45
31 | CCACACUUGAAGCAAUCGGUG [Fam1B.1 aminoacylation ribozyme variant] | 19.1 | 2.21 | 3.04 | 2.39 | 4.29 | 3.48
32 | AAGUUUGCUAAUGGUCGCUAG [Fam3.1 aminoacylation ribozyme variant] | 0.714 | 0.829 | 0.963 | 0.975 | 0.908 | 0.845
33 | CCUCACCUAGGUCAUCGGGUG [Fam2.2 aminoacylation ribozyme variant] | 16.2 | 3.22 | 3.92 | 5.35 | 4.79 | 5.46
34 | AUGCACCUAGGUCAUCGGAUG [Fam2.2 aminoacylation ribozyme variant] | 0.614 | 1.26 | 0.919 | 1.23 | 1.11 | 1.25
35 | AUUACCCUUGUCAUCGGGUGA [Fam2.1 aminoacylation ribozyme variant] | 45.3 | 4.14 | 8.35 | 4.39 | 9.03 | 9.41
36 | CAGUUUGCUAAUAGUCUCAAG [Fam3.1 aminoacylation ribozyme variant] | 1.71 | 0.951 | 0.711 | 0.829 | 1.09 | 0.993
37 | AUUGACCUAGGUCAUCGCGUG [Fam2.2 aminoacylation ribozyme variant] | 25 | 3.24 | 4.19 | 3.69 | 5.69 | 5.47
38 | ACUCACCUAGGUCACCGGGUG [Fam2.2 aminoacylation ribozyme variant] | 34.2 | 4.71 | 3.64 | 5.05 | 7.47 | 7.92
39 | AUUCGCCAAGGUCAUCGGGUG [Fam2.2 aminoacylation ribozyme variant] | 91.8 | 7.65 | 10.7 | 6.69 | 14.7 | 11
40 | AUUCACCUAAGUAAUCGGGUG [Fam2.2 aminoacylation ribozyme variant] | 24.9 | 2.81 | 4.37 | 2.15 | 5.7 | 4.33
41 | AUUACCCUGGACAUCGGGUGA [Fam2.1 aminoacylation ribozyme variant] | 29.7 | 7.02 | 9.33 | 7.46 | 10.2 | 7.69
42 | CCACACCUCGAGCAAUCGGUC [Fam1B.1 aminoacylation ribozyme variant] | 0.967 | 1.39 | 1.18 | 1.88 | 1.11 | 1.95
